Data from publication PMC7718258, “A substrate binding model for the KEOPS tRNA modifying complex”.

T1: mjCgi121 (Methanocaldococcus jannaschii, UniProt Q57646 1-145)
T1 sequence: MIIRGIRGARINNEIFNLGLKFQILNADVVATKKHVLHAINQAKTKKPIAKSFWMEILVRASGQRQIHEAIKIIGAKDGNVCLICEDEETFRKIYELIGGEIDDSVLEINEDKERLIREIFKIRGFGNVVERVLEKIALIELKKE

T2: mjBud32 (Methanocaldococcus jannaschii, UniProt Q58530 333-535)
T2 sequence: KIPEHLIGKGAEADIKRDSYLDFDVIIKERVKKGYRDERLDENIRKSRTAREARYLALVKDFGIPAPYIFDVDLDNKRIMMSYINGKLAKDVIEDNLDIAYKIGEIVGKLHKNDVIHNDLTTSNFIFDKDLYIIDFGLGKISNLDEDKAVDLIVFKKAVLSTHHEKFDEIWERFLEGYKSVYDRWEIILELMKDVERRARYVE

T3: mjKae1 (Methanocaldococcus jannaschii, UniProt Q58530 1-332)
T3 sequence: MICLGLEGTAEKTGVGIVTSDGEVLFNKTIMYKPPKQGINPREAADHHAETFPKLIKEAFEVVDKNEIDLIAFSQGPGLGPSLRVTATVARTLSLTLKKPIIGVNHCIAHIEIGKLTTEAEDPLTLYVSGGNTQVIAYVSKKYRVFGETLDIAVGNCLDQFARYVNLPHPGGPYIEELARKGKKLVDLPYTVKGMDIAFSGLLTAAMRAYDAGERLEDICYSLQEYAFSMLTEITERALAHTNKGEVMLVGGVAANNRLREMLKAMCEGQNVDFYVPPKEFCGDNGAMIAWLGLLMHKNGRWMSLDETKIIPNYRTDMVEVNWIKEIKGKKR

T4: mjCgi121;mjBud32;mjKae1 (Methanocaldococcus …, UniProt Q57646;Q58530;Q58530 1-145;333-535;1-332, ||)
T4 sequence 1: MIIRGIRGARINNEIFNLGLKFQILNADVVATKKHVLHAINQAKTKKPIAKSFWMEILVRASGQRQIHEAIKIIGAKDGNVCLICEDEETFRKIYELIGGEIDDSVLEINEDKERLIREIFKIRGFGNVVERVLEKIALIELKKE
T4 sequence 2: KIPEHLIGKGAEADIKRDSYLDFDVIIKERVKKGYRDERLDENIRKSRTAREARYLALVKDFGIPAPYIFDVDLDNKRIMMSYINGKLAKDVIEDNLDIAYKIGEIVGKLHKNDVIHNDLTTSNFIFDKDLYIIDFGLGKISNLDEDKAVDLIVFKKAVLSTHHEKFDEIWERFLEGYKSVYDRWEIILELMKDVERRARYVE
T4 sequence 3: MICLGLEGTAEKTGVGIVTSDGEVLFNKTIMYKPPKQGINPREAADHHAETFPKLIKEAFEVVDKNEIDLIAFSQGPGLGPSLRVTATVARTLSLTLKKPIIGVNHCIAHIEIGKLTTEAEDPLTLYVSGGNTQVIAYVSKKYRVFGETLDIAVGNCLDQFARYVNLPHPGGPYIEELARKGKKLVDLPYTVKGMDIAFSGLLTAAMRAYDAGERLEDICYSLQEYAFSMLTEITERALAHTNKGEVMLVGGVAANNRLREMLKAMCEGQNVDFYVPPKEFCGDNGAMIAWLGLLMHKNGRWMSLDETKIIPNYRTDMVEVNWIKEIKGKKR

T5: mjCgi121;mjBud32 (Methanocaldococcus …, UniProt Q57646;Q58530 1-145;333-535, |)
T5 sequence 1: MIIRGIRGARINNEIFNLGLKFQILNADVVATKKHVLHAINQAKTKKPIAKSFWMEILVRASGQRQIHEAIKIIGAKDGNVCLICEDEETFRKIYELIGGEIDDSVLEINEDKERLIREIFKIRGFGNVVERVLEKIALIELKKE
T5 sequence 2: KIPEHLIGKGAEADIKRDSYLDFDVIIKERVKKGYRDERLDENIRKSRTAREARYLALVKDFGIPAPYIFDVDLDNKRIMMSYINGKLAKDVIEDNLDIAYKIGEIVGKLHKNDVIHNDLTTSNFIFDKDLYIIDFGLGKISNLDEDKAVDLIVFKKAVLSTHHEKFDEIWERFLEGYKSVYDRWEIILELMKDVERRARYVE


Experiments:
mjCgi121 [1] = molecular target: T1, mjCgi121; test: competition; displacement of 32P-tRNA, filter binding, 5 uM protein; 20 mM HEPES pH 7.5, 100 mM NaCl, 2 mM DTT; filter binding 50 nM 32P-tRNA, 1 h, room temperature; FP 50 nM 647-CCA; NMR 25 C with 10% D2O; details: protein: recombinant; tags: GST removed by TEV; single strand
TPRKB = TPRKB (Homo sapiens, UniProt Q9Y3C4 1-175); test: fluorescence polarization; 20 mM HEPES pH 7.5, 100 mM NaCl, 2 mM DTT; filter binding 50 nM 32P-tRNA, 1 h, room temperature; FP 50 nM 647-CCA; NMR 25 C with 10% D2O; details: protein: recombinant; tags: GST removed by TEV; label: 5' Alexa-647; single strand
TPRKB;PRPK;OSGEP;LAGE3 = TPRKB;PRPK;OSGEP;LAGE3 (Homo sapiens;Homo sapiens;Homo …, UniProt Q9Y3C4;Q96S44;Q9NPF4;Q14657 1-175;1-253;1-335;1-143, |||); test: as above; details: protein: recombinant;recombinant;recombinant;recombinant; tags: GST removed by TEV;GST-His6 removed by TEV;;His; copies: 1;1;1;1; label: 5' Alexa-647; single strand
scQri7 = scQri7 (Saccharomyces cerevisiae, UniProt P43122 30-407); test: as above; details: protein: recombinant; tags: His6 removed by TEV; label: 5' Alexa-647; single strand
mjBud32 = molecular target: T2, mjBud32; test: as above; details: protein: recombinant; tags: His6 removed by TEV; label: 5' Alexa-647; single strand
TPRKB;PRPK = TPRKB;PRPK (Homo sapiens;Homo sapiens, UniProt Q9Y3C4;Q96S44 1-175;1-253, |); test: as above; details: protein: recombinant;recombinant; tags: GST removed by TEV;GST-His6 removed by TEV; copies: 1;1; label: 5' Alexa-647; single strand
mjKae1 = molecular target: T3, mjKae1; test: as above; details: protein: recombinant; tags: GST removed by TEV; label: 5' Alexa-647; single strand
mjCgi121 [2] = molecular target: T1, mjCgi121; test: as above; details: protein: recombinant; tags: GST removed by TEV; label: 5' Alexa-647; single strand
mjCgi121;mjBud32;mjKae1 = molecular target: T4, mjCgi121;mjBud32;mjKae1; test: as above; details: protein: recombinant;recombinant;recombinant; tags: GST removed by TEV;His6 removed by TEV;GST removed by TEV; copies: 1;1;1; label: 5' Alexa-647; single strand
mjCgi121;mjBud32 = molecular target: T5, mjCgi121;mjBud32; test: as above; details: protein: recombinant;recombinant; tags: GST removed by TEV;His6 removed by TEV; copies: 1;1; label: 5' Alexa-647; single strand

scQri7, sequence (P43122 30-407): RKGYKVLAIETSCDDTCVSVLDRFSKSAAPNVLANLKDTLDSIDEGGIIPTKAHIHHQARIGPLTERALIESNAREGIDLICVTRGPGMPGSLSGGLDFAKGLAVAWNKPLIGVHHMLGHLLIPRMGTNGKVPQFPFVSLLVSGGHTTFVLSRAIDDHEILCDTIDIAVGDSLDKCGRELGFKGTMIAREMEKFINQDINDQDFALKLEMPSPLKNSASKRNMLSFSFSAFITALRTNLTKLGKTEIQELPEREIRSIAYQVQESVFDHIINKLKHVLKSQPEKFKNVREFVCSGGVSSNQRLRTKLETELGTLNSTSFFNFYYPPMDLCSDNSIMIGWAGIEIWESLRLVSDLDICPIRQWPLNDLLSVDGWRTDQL

Binder	binding result (mjCgi121 [1])	Kd (TPRKB)	Kd (TPRKB;PRPK;OSGEP;LAGE3)	binding result (scQri7)	binding result (mjBud32)	Kd (TPRKB;PRPK)	binding result (mjKae1)	Kd (mjCgi121 [2])	Kd (mjCgi121;mjBud32;mjKae1)	Kd (mjCgi121;mjBud32)
ACCGCCC (ssRNA) [inverted oligo]	no binding	–	–	–	–	–	–	–	–	–
CCGCCA (ssRNA) [647-CCA]	–	28000 nM	4300 nM	no binding	no binding	450 nM	no binding	730 nM	153 nM	229 nM
CCCGCCA (ssRNA) [CCA-oligo]	binds	–	–	–	–	–	–	–	–	–
